Test results: the DeepSol protein solubility set

Assay: soluble on expression in E. coli; label from the status in PepcDB or PDB records

Sequence | soluble on expression in E. coli
MAEETDVIVVGAGLSGLVAATEIADAGKRVIVVDQEGEQSVGGQAFWSFGGLFLVNSPEQRRLGIKDSFDLAMQDWLGTAGFDRDEDHWPRKWAEAYVAFAAGEKRDWLHAMGHRILPVVGWAERGGYDAMGHGNSVPRFHVTWGTGPGIVEPFERRAREAMKSGRLIFKFRHRVDALSITNGTVDGVSGAVLAPDNVERGKSSSRNVVGEFALKAQAVIVASGGIGGNHELVRQNWPKRLGEPPKFMISGVPEHVDGRMIGITEQAGARLINRDRMWHYVEGIQNWSPIWPRHGIRILPGPSSMWFDATGTRLPAPLFPGSDTLGQLKYIMSTGHDYSWFILTQSIIKKEFALSGSEQNPDLTGKSWRMTLRRATNKGAPAPVEAFKSHGVDFIVRDKIDDLVTAMNKLAGSDLLRLEHIKMQIEARDREIANPYVKDAQVMNIHNARRYIGDKLIRTASPHRILDPAHGPLIAVKLNILTRKTLGGFETDLDSRVFGGEGSIIPGLYAVGEAAGFGGGGVHGYRSLEGTFLGGCLFSGRNAGRAAAKAVG | not soluble
AHHHHHHGSQRLEESTSCRGVGDMRKAIIVGVGMTPVGEHWRSSLRDLAVEAILNAMDDAGIDKVDSLYVGNMASGSFVEQENLGALIADWAGLGNIPAVKIEAACASGGAAVQEGAKAVLSGLEDVVLVVGVEKMTDAWPSDATRYLGYAADAEWELFHGASFVALNALIMRLYMNTYGYKEEDLALFAVNAHANGAKNPYAMFKKPITVETVMKSPYIADPLKLFDASPVCDGAAAVIITTPEKAKELGIPKDKWIEIAGMGRAIDTINLANREDFLTLKAATIAAERAYKMAGVKPEDVDFFEVHDAFTVMAALSLEALGVAKKGEGAKLAIEGQIAIDGDYPIQTMGGLKARGHPVGATGVYQVVEAVLQLRGEAPDGIQVPDAEVGLTQNIGGTGSNITVTVLRRV | soluble
VCQILEVDRSTYHYKSRRPGQASLESKIKEICQTRVRYGYRRVHVLLRREGWLINQKKTRRIYRELGLQLRNKTPKRRVRAKLRDDRRDATHPNETWAMDFVHDQLATGNKIRVLTVVDLFSRYSPVLDPRFSYRAENVVQTLEHTWAAVGYPKTIRVDQGSEFISRELDLWAYSNGVTLDFSRPGKPTDNAFIEAFNGRFRAECLNTHWFLTLDDARSKLEDWRRYYNEQRPHGAIGNRPPITLHNRDSDPSSPS | soluble
MGNKITVEVTVYAAIEKVWKYWNEPAHIMKWCQASPEWHVPAAQNDLKAGGTFTTTMAAKDGSMSFDFGGVYDQVKTNDLIEYTIGDGRKVRIVFTHTGDTTNIVESFDPEETNPRELQQSGWQAILNSFKSYTENNLEHHHHHH | soluble
MTLMGFRVKKVRNHVLWDKENDDRNAFTVIIGNNGCGKTELLIDTCNKYHSYYTSALLDKDTHVASAVHYLREDFSPHNWKTVEREYGHRLPRKLIAASTSQFEKFKANWSVRNDLVPSGFYAYIGSKPYMPSLSPSTRIASKAIQQLLGAEYFEERKHKALVGFLSKFDFGQKLLLKFELTFPNEDLENIQNQSLTEPETQLILKNAYIEHDEMELVELLGYCERIIEAPAFALTVGNQNLNLIHLKGSEQKPFSKLIISRMLRAGLITLSSIQTMKDKSLINDQSTVNIESSAISSLSKRSSGEQ | not soluble
MGSDKIHHHHHHMCASVLSRCGVALSQIQPIRCHLCQQTPCLTQCAEHNDTLNQHAAEYVKLVLAIGHHEPLYVDAYYGPAQWQAEASMLPLPELASRCASLVNQLANAGKDLSCQFLRDRHGFLSKQLGAVAAYLKRLMGQEFSFDVESRLLYDTQAPKLNLSDFSEVLARIDSLLPGEGSLTKRFDTYRSQFIVPADRVPQVFTAAVEQARLLTKRHLALPEGEQFRVEFVKDQIWTAYNWYQGDYASLIQLNQDHPLHLDRALELASHEGYPGHHVFNLLQEHELVKGLGWWEYAIYPLYSPISFLSEGSANYGLSLLMTKEERIDFEQRVLMPMAGIAGDLQHYHEVMVTYKALANLDTLVCRQLIDGEIQADEAARLLVEFALYTPEKAAQRVRFYQANRSYVLNYHHGEASVGEYVTNQVRDNAQAWEVFAALLARPRAASGIIR | not soluble
MGHHHHHHSHMVKPLSPLNIQKLARHHGPRLWSQLLGRLRQVGHVGSGVRDQPGQHGETPISTKNTKISQASWPTPVVPATREAEVEGSLKSWGQGCSELLSHHCTPAWATVRPCLKKKRKMKQKLTCLLPPN | not soluble
PGRLHNAIVRPRVLDLLQHATCYKLVLFRSPAGYGKTTMAAQWLADKPNLGWYSIDDSDNDPFRFMNYLLQAINKATHN | not soluble
MKQEIIIAGFGGQGVLSMGKILAYSGLMEDKEVTWMPAYGPEQRGGTANVTVIVSDERISSPILSQYDTAIILNQPSLEKFEGKIKPGGILIYDGYGIIEPPTRKDIQIYRIDAMDAANEKGMAKTFNMIVLGGLLKLRPVVSIESVIKALRKTLPERHHHLIPMNEEAIRIGMEIIK | not soluble
MGSDKIHHHHHHMSDKFGEGRDPYLYPGLDIMRNRLNIRQQQRLEQAAYEMTALRAATIELGPLVRGLPHLRTIHRQLYQDIFDWAGQLREVDIYQGDTPFCHFAYIEKEGNALMQDLEEEGYLVGLEKAKFVERLAHYYCEINVLHPFRVGSGLAQRIFFEQLAIHAGYQLSWQGIEKEAWNQANQSGAMGDLTALQMIFSKVVSEAGESE | not soluble
MGSDKIHHHHHHMTTFEVKDTAHVAFKIINLRCPHCHHAASFSGFDGCSDLRYNVQAKRHPSGATTNTFDIAGMRRCPNTTCRKLVFVMEDKYGEIESFPPEVIDFDASNLPSDILSSLEEAIRCHAANCYRASALMVRRTLEELCDNKSATGKDLKTRLAALGTVAVIPSELLSAADELRILGNDAAHIEAKDYDSIGKEESEIAIELAKELLKAVYQYTSLVARLTALKKPKQ | not soluble
MGSDKIHHHHHHMSLLSDEEVNSLSIQRMIFHVVDPALENPTFLAEVNPPQCVDFFVERVKETLKGSAYEFVPGAGIPNLLHRALPGPDGKDDFITVSHALAERFKDKVKQDKRLAPGVLMLFALKTNGNNQLVAVIKYEHQQVVSYSYVKDTNGSPVLDADGNPVPDLKTLVETFTKDRKAMQKSAVIRFQNINSSGGGTFSSSAVVIDHSSGRYRDATQHFANFLDIRRALKPSELTKRLEDAAVEAIKAHRSEVPTEIAKAPKRHVRTAMSRLDGFDFEKPEEFLGAVLQGVSPDSKILKTFKSKLASKNISTEAFKFEGATPPPAEYRRVVTNEGVTLLFSAGHEEKKNVEIQDEENGGVKITIRTTGLERNDELEKMPRLPD | not soluble
MRMMEAEIKDQRNNLQALKNSQRLSVRGSIQSNMSSRTDGILQRRLDETERKLAKTSAELKAKDEKLKKETASLEASREAHRLLQEESNKSKVSVMRLTFKLNRITHESVKEQAVLKKKLLDCETRLATYSECLVCYQKFDENTRIPRVMDCGHTLCDFCINQIVKMAGCYSATCPFDRVRIFGFGKSRRLEDRPCNRFIMK | not soluble
MSLEPVFQLRKELNVFASEEGGATEDISSYAATADSSGITEWNTSDKFTNEMTLTENAKYTVSQLAPNLSFLPEQATDLTGAVDYYSGNALCNDRENLYIWPFNSPQRRLACIRIPLHEEHEVLSGAPLCCFTWPSAGEESEQTKSAGVLIVHANSGLVQFYEDIHTINSVSTLISKSRVIQLDLRFRDREHATDVVNAEPSGILVATSFGRLLLLTIRDSSGKPCLKLRQQLIKSQVGFFSGAMNTFKDIVAIKPSLITGKGERLLLTITRGGELKIWNVSATMSSYKRVEVNVYQQILESLQELYPFAYGSLQILDLNPLPSDPYSLLVLSSISDGKETYYILTAIKVEESSFSIFSVYRLNTYTKANDKKPRLFIAGDLENGEQPIEPQNVPVYLLFEDAVVITQAFTQLDSNYPLRKKWEDLVSLKEDSMVLGHGNDEKALYLINGNRGVVKIEAKMEPSEDYRFVKSHIDQAVYFSEGHHHHHH | soluble
MSFVPSEVRLDHTFLEWDKEWIFQRLPKTEIQIPREFEPDIETDAIPTIARQPADPNTTWNETGLDQIQMGPTINSTKN | not soluble
